Measurements as given in patent US20210115100A1.

What was measured:
Assay in all cases: cell-based or functional assay
[1] = target: wild type human pro-BMP7 (human) (UniProt P18075)
[2] = target: human mature BMP7 protein variant F9 (SEQ ID NO: 8) (human) (UniProt P18075)
[3] = target: wild type human mature BMP7 (SEQ ID NO: 2) (human) (UniProt P18075)
[4] = target: human pro-BMP7 protein variant F9 (human) (UniProt P18075)
Chain of human pro-BMP7 protein variant F9 (human) (P18075 other isoform, or with tags, fused parts or gaps mutant, chain 1 of 2): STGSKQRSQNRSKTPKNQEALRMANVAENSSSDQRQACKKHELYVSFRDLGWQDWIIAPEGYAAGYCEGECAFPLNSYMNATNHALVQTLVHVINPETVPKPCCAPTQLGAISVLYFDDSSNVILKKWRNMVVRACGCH
Chain of human pro-BMP7 protein variant F9 (human) (P18075 other isoform, or with tags, fused parts or gaps mutant, chain 2 of 2): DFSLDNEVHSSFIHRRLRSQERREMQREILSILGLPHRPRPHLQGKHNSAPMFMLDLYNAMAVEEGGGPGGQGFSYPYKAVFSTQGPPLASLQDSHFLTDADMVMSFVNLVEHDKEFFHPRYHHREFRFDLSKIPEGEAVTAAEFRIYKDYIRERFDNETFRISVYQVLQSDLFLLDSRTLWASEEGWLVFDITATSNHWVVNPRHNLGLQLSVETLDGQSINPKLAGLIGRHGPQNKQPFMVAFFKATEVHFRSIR

Chain of wild type human pro-BMP7 (human) (P18075 293-431, chain 1 of 2): as the sequence (P18075 other isoform, or with tags, fused parts or gaps mutant, chain 1 of 2) above, with G65Y, L86I, V93F, G110N, W128Y counted along it
Chain of wild type human pro-BMP7 (human) (P18075 other isoform, or with tags, fused parts or gaps, chain 2 of 2): as the sequence (P18075 other isoform, or with tags, fused parts or gaps mutant, chain 2 of 2) above
Chain of wild type human mature BMP7 (SEQ ID NO: 2) (human) (P18075 293-431): as the sequence (P18075 other isoform, or with tags, fused parts or gaps mutant, chain 1 of 2) above, with G65Y, L86I, V93F, G110N, W128Y counted along it
Chain of human mature BMP7 protein variant F9 (SEQ ID NO: 8) (human) (P18075 other isoform, or with tags, fused parts or gaps mutant): as the sequence (P18075 other isoform, or with tags, fused parts or gaps mutant, chain 1 of 2) above
Chain of Follistatin (P19883 30-344): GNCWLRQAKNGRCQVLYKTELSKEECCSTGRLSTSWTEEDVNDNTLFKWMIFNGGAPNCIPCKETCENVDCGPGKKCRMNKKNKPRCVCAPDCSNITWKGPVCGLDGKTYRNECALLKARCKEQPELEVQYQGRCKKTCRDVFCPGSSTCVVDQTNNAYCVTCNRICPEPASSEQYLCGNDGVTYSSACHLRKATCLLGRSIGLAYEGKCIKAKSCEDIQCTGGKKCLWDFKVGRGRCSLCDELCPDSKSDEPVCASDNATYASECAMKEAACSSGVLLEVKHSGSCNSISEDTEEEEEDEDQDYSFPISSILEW

% inhibition, 0.1X molar excess of inhibitor (hepcidin promoter luciferase, Hep3B2 HepPro luc cells) [1] | % inhibition, 1X molar excess of inhibitor (hepcidin promoter luciferase, Hep3B2 HepPro luc cells) [1] | % inhibition, 10X molar excess of inhibitor (hepcidin promoter luciferase, Hep3B2 HepPro luc cells) [1] | % inhibition, 100X molar excess of inhibitor (hepcidin promoter luciferase, Hep3B2 HepPro luc cells) [1] | % inhibition, 0.01X molar excess of inhibitor (hepcidin promoter luciferase, Hep3B2 HepPro luc cells) [2] | % inhibition, 0.1X molar excess of inhibitor (hepcidin promoter luciferase, Hep3B2 HepPro luc cells) [2] | % inhibition, 1X molar excess of inhibitor (hepcidin promoter luciferase, Hep3B2 HepPro luc cells) [2] | % inhibition, 10X molar excess of inhibitor (hepcidin promoter luciferase, Hep3B2 HepPro luc cells) [2] | % inhibition, 0.1X molar excess of inhibitor (hepcidin promoter luciferase, Hep3B2 HepPro luc cells) [3] | % inhibition, 1X molar excess of inhibitor (hepcidin promoter luciferase, Hep3B2 HepPro luc cells) [3] | % inhibition, 10X molar excess of inhibitor (hepcidin promoter luciferase, Hep3B2 HepPro luc cells) [3] | % inhibition, 100X molar excess of inhibitor (hepcidin promoter luciferase, Hep3B2 HepPro luc cells) [3] | % inhibition, 0.1X molar excess of inhibitor (hepcidin promoter luciferase, Hep3B2 HepPro luc cells) [4] | % inhibition, 1X molar excess of inhibitor (hepcidin promoter luciferase, Hep3B2 HepPro luc cells) [4] | % inhibition, 10X molar excess of inhibitor (hepcidin promoter luciferase, Hep3B2 HepPro luc cells) [4] | % inhibition, 100X molar excess of inhibitor (hepcidin promoter luciferase, Hep3B2 HepPro luc cells) [4] | Substance
-15.1% | -2.2% | 18.9% | 76.5% | 3.7% | 6.8% | 5.2% | 5.6% | -13.1% | -9.2% | 21.3% | 70.9% | -5.9% | -5.3% | -1.3% | -17.7% | Chordin
-10.4% | 5.9% | 29.5% | 79.8% | 3.9% | 10.6% | 10% | 23.8% | -16.6% | -11.9% | 21.1% | 54.7% | -2.6% | -4.3% | 11.7% | 22.5% | Follistatin
8.9% | 55.9% | 87.5% | 88.2% | -1.5% | -3.2% | -1% | 9% | -13.7% | 49% | 69.5% | 71.9% | 3.5% | 2.4% | 8.8% | 24.9% | Chordin-like 2
